Measurements reported in the supplement of paper PMC6757056.
± gives the standard deviation of the averaged measurements.

B1: library; a variant is named by its letters at N, in order (parent)
chain: GCUGUCACCGGUGCUUGGUACGUUAUAUUCAGCCGGUCUGAUGAGUCUNNNNNNAGACGAAACAGC

Experiments:
(6R,S)-folinic acid [1] = variants of: B1; assay: normalized RNA/DNA level without ligand (relative to sTRSVctl = 100) (log10 (% of sTRSVctl)); HEK293T overexpressing SLC46A1; higher = less ribozyme self-cleavage, higher mRNA level; conditions: without (6R,S)-folinic acid; ligand present: no
Method in brief: (§1)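 RNA level was computed as RNA reads over DNA reads divided by a spiked-in non-cleaving sequence or by the top sequences, then scaled and log-transformed. Scaling was ×100 with log10, the top group was 25 sequences, and the threshold was ≥100 DNA reads. The reads came from HEK293T cells transfected at 4 µg per 6-well well with ribozyme switch library plasmids (mCherry, or eGFP in some ligand experiments). Total RNA was extracted with EDTA 72 h after transfection, with any ligand added 1 h before it.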

(6R,S)-folinic acid [2] = variants of: B1; assay: normalized RNA/DNA level with ligand (relative to sTRSVctl = 100) (log10 (% of sTRSVctl)); HEK293T overexpressing SLC46A1; ligand concentration (+) RNA-Seq: 6 mM; higher = less ribozyme self-cleavage, higher mRNA level; conditions: with (6R,S)-folinic acid; ligand present: yes
Method in brief: as §1

Row | Variant | normalized RNA/DNA level without ligand (log10) ((6R,S)-folinic acid [1]) | normalized RNA/DNA level with ligand (log10) ((6R,S)-folinic acid [2])
1 | GCUAGU | 1.98 ± 0.024 | 2.01 ± 0.046
2 | GCUAGA | 2.002 ± 0.0075 | 2.042 ± 0.012
3 | GCUAGG | 1.951 ± 0.016 | 2.031 ± 0.0073
4 | UCUCAU | 2.032 ± 0.015 | 2.023 ± 0.011
5 | UCUCAG | 1.958 ± 0.012 | 1.98 ± 0.027
6 | UCUCAA | 1.96 ± 0.0096 | 1.98 ± 0.024
7 | UCUCAC | 2.098 ± 0.0045 | 2.04 ± 0.035
8 | UCUAUA | 2 ± 0.032 | 2.04 ± 0.025
9 | UCUAUC | 2.07 ± 0.024 | 2.062 ± 0.0087
10 | UCUAUG | 1.832 ± 0.017 | 2.022 ± 0.0024
11 | UCUAUU | 2.048 ± 0.0024 | 2.046 ± 0.0024
12 | GCGGUU | 2.07 ± 0.0088 | 2.02 ± 0.05
13 | GCGGUA | 1.98 ± 0.017 | 2.011 ± 0.014
14 | GCGGUC | 2.06 ± 0.024 | 2.06 ± 0.056
15 | GCGGUG | 2.032 ± 0.0067 | 2.07 ± 0.07
16 | ACUCUG | 1.925 ± 0.018 | 2 ± 0.025
17 | ACUCUC | 2.086 ± 0.0057 | 2.06 ± 0.024
18 | ACUCUA | 2.005 ± 0.0056 | 2.01 ± 0.06
19 | ACUCUU | 2.0142 ± 0.0018 | 2.01 ± 0.046
20 | ACUACA | 1.99 ± 0.021 | 2.01 ± 0.021
21 | ACUACC | 2.03 ± 0.0033 | 2.01 ± 0.04
22 | ACUACG | 1.938 ± 0.0043 | 2.006 ± 0.02
23 | ACUACU | 2.022 ± 0.02 | 2.041 ± 0.0021
24 | UCUCCA | 2.017 ± 0.0042 | 2.023 ± 0.0081

Row | Variant | normalized RNA/DNA level without ligand (log10) ((6R,S)-folinic acid [1]) | normalized RNA/DNA level with ligand (log10) ((6R,S)-folinic acid [2])
25 | UCUCCC | 2.07 ± 0.021 | 2.06 ± 0.05
26 | UCUCCG | 1.96 ± 0.065 | 2.022 ± 0.013
27 | UCUCCU | 2.01 ± 0.028 | 2.02 ± 0.032
28 | UCGUCA | 2.045 ± 0.013 | 2.03 ± 0.045
29 | UCGUCU | 2.02 ± 0.035 | 2.04 ± 0.09
30 | UCGUCC | 2.064 ± 0.0091 | 2.0551 ± 0.00048
31 | CCGUCU | 2.04 ± 0.0053 | 2.05 ± 0.061
32 | CCGUCA | 2.04 ± 0.031 | 2.05 ± 0.038
33 | CCGUCC | 2.06 ± 0.021 | 2.06 ± 0.039
34 | CCGUCG | 2.02 ± 0.034 | 2.021 ± 0.015
35 | GCUAAC | 1.975 ± 0.015 | 2.015 ± 0.007
36 | GCUAAG | 1.968 ± 0.003 | 2.024 ± 0.016
37 | GCUAAA | 1.992 ± 0.009 | 2.02 ± 0.028
38 | GCGGGC | 1.95 ± 0.045 | 1.959 ± 0.017
39 | GCGGGG | 2.054 ± 0.0092 | 2.055 ± 0.017
40 | GCGGGA | 2.041 ± 0.0095 | 2.06 ± 0.023
41 | GCGGGU | 2.05 ± 0.045 | 2.017 ± 0.012
42 | UCGUGG | 1.947 ± 0.0075 | 2.02 ± 0.041
43 | UCGUGC | 2.074 ± 0.015 | 2.055 ± 0.0071
44 | UCGUGU | 1.998 ± 0.0023 | 2.029 ± 0.0088
45 | UCGUGA | 1.955 ± 0.014 | 2.009 ± 0.0081
46 | GCUGAC | 1.986 ± 0.0051 | 2.01 ± 0.045
47 | ACGGGC | 2.097 ± 0.0034 | 2.09 ± 0.031
48 | ACGGGU | 1.989 ± 0.0096 | 2.04 ± 0.034

Row | Variant | normalized RNA/DNA level without ligand (log10) ((6R,S)-folinic acid [1]) | normalized RNA/DNA level with ligand (log10) ((6R,S)-folinic acid [2])
49 | ACGGGG | 1.997 ± 0.018 | 2.065 ± 0.02
50 | ACUAGC | 2 ± 0.011 | 2.02 ± 0.025
51 | ACUAGG | 1.912 ± 0.015 | 1.99 ± 0.038
52 | ACUAGU | 2.02 ± 0.02 | 2.05 ± 0.026
53 | ACUAGA | 1.969 ± 0.014 | 2.01 ± 0.039
54 | CCUAGU | 2.074 ± 0.0064 | 2.06 ± 0.029
55 | CCUAGG | 2.05 ± 0.03 | 2.043 ± 0.0025
56 | CCUAGA | 2.05 ± 0.016 | 2.05 ± 0.046
57 | GCGGAA | 1.978 ± 0.007 | 2.02 ± 0.048
58 | GCGGAC | 1.972 ± 0.0066 | 2.05 ± 0.029
59 | GCGGAU | 2.021 ± 0.0026 | 2.04 ± 0.042
60 | CCUCCC | 2.095 ± 0.016 | 2.0404 ± 0.0018
61 | CCUCCG | 2.07 ± 0.029 | 2.049 ± 0.011
62 | CCUCCU | 2.06 ± 0.036 | 2.037 ± 0.0023
63 | GCUCAG | 1.96 ± 0.0025 | 2.02 ± 0.03
64 | GCGGCA | 2.071 ± 0.0038 | 2.07 ± 0.048
65 | GCGGCG | 2.07 ± 0.023 | 2.1 ± 0.061
66 | GCGGCC | 2.072 ± 0.011 | 2.077 ± 0.02
67 | GCGGCU | 2.0832 ± 0.0008 | 2.05 ± 0.031
68 | ACUCGC | 2.034 ± 0.012 | 2.01 ± 0.041
69 | ACUCGA | 1.994 ± 0.019 | 2.03 ± 0.025
70 | ACUCGU | 2.028 ± 0.016 | 1.983 ± 0.016
71 | ACUCGG | 1.979 ± 0.013 | 2.02 ± 0.024
72 | UCGGUA | 1.93 ± 0.029 | 1.985 ± 0.015

Row | Variant | normalized RNA/DNA level without ligand (log10) ((6R,S)-folinic acid [1]) | normalized RNA/DNA level with ligand (log10) ((6R,S)-folinic acid [2])
73 | UCGGUC | 2.09 ± 0.025 | 2.06 ± 0.051
74 | CCGGCU | 2.08 ± 0.029 | 2.051 ± 0.013
75 | CCGGCC | 2.094 ± 0.013 | 2.03 ± 0.013
76 | CCGGCG | 2.05 ± 0.025 | 2.05 ± 0.038
77 | CCGGCA | 2.108 ± 0.021 | 2.049 ± 0.016
78 | ACGUUG | 1.936 ± 0.0063 | 2.03 ± 0.043
79 | ACGUUC | 2.07 ± 0.022 | 2.02 ± 0.037
80 | CCGGGG | 1.985 ± 0.01 | 2.01 ± 0.049
81 | CCGGGU | 2.07 ± 0.036 | 2.05 ± 0.04
82 | CCGGGA | 2.039 ± 0.0033 | 2.02 ± 0.054
83 | CCGGGC | 2.102 ± 0.01 | 2.073 ± 0.0025
84 | CCUAAC | 2.041 ± 0.0058 | 2.038 ± 0.017
85 | CCUAAA | 1.9908 ± 0.0014 | 2.01 ± 0.028
86 | CCGGUG | 2.04 ± 0.04 | 2.051 ± 0.0038
87 | CCGGUC | 2.0714 ± 0.0011 | 2.03 ± 0.069
88 | CCGGUA | 2.01 ± 0.038 | 2.009 ± 0.011
89 | GCGUUU | 2.037 ± 0.017 | 2.04 ± 0.022
90 | GCGUUC | 2.017 ± 0.0029 | 2.034 ± 0.02
91 | GCGUUA | 2.003 ± 0.0039 | 2.02 ± 0.036
92 | GCGUUG | 2.009 ± 0.0022 | 2.05 ± 0.041
93 | ACUCAC | 2.058 ± 0.007 | 2.045 ± 0.0072
94 | ACUCAG | 1.967 ± 0.0061 | 1.98 ± 0.036
95 | GCGCUC | 2.05 ± 0.049 | 2.01 ± 0.043
96 | GCGCUU | 2.053 ± 0.018 | 2.048 ± 0.015

Row | Variant | normalized RNA/DNA level without ligand (log10) ((6R,S)-folinic acid [1]) | normalized RNA/DNA level with ligand (log10) ((6R,S)-folinic acid [2])
97 | GCGCUG | 2.11 ± 0.022 | 2.1 ± 0.024
98 | UCUCGG | 2.03 ± 0.034 | 2.042 ± 0.0089
99 | UCUCGC | 2.1 ± 0.032 | 2.05 ± 0.028
100 | ACGUCU | 2.04 ± 0.028 | 2.025 ± 0.013
101 | ACGUCG | 2 ± 0.022 | 2.06 ± 0.014
102 | ACGUCC | 2.03 ± 0.023 | 2 ± 0.068
103 | ACGUCA | 2.037 ± 0.0081 | 2.027 ± 0.0046
104 | ACGUGG | 1.954 ± 0.0043 | 2.05 ± 0.025
105 | ACGUGC | 2.026 ± 0.0053 | 2.02 ± 0.055
106 | ACGUGU | 2.06 ± 0.028 | 2.06 ± 0.024
107 | ACGGCG | 2.015 ± 0.0037 | 2.0489 ± 0.00014
108 | ACGGCU | 2.048 ± 0.014 | 2.04 ± 0.044
109 | ACGGCC | 2.117 ± 0.009 | 2.06 ± 0.056
110 | ACUAUA | 1.983 ± 0.012 | 2.013 ± 0.0097
111 | ACUAUC | 2.063 ± 0.0022 | 2.04 ± 0.038
112 | ACUAUU | 2.027 ± 0.0052 | 2.02 ± 0.043
113 | ACUAUG | 1.9049 ± 0.00034 | 2.008 ± 0.016
114 | ACGGUG | 1.924 ± 0.0096 | 2.003 ± 0.013
115 | ACGGUC | 2.088 ± 0.0078 | 2.06 ± 0.036
116 | ACGGUA | 1.9058 ± 0.0011 | 1.95 ± 0.029
